# Assay results published in the supplement of paper PMC7125110.
# ± gives the standard error. For some of these results: This sample holds only a part of the variants without activity.
# B1: glmS ribozyme (parent)
# chain: AUAAAAGCGCCAGAACUACAGAAAUGUAGUUGACGAGGAGGAGGUUUAUCGAAUUUUCGGCGGAUGCCUCCAAA
# What was measured:
# Details in all cases: with glucosamine-6-phosphate
# glucosamine-6-phosphate [1] = variants of: B1; test: kcat; higher = faster cleavage; RNA array
# Summary of the method: (§1)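 Over ~14 h at 37 °C, tiles were imaged as glucosamine-6-phosphate (40 μM to 10 mM) in HEPES/KCl/Mg(OAc)2 buffer flowed across sequenced MiSeq chips. The chips carried barcoded ribozyme variants transcribed in situ by E. coli RNA polymerase and tracked with a hybridised Cy3 probe. After normalisation to baseline and to non-cleaving reference variants, one- or two-exponential decay fits of per-tile medians gave kobs. kcat and KM followed from weighted Michaelis–Menten fits across concentrations.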
# glucosamine-6-phosphate [2] = variants of: B1; test: self-cleavage kobs at 640 uM GlcN6P; higher = faster cleavage; RNA array
# Summary of the method: as §1
# glucosamine-6-phosphate [3] = variants of: B1; test: self-cleavage kobs at 2500 uM GlcN6P; higher = faster cleavage; RNA array
# Summary of the method: as §1
# glucosamine-6-phosphate [4] = variants of: B1; test: self-cleavage kobs at 10000 uM GlcN6P; higher = faster cleavage; RNA array
# Summary of the method: as §1
# glucosamine-6-phosphate [5] = variants of: B1; test: KM; higher = weaker cofactor use; RNA array
# Summary of the method: as §1
# glucosamine-6-phosphate [6] = variants of: B1; test: self-cleavage kobs at 40 uM GlcN6P; higher = faster cleavage; RNA array
# Summary of the method: as §1
# glucosamine-6-phosphate [7] = variants of: B1; test: self-cleavage kobs at 160 uM GlcN6P; higher = faster cleavage; RNA array
# Summary of the method: as §1
Variant,kcat (glucosamine-6-phosphate [1]),self-cleavage kobs at 640 uM GlcN6P (glucosamine-6-phosphate [2]),self-cleavage kobs at 2500 uM GlcN6P (glucosamine-6-phosphate [3]),self-cleavage kobs at 10000 uM GlcN6P (glucosamine-6-phosphate [4]),KM (glucosamine-6-phosphate [5]),self-cleavage kobs at 40 uM GlcN6P (glucosamine-6-phosphate [6]),self-cleavage kobs at 160 uM GlcN6P (glucosamine-6-phosphate [7])
G13U G29C,0.000126 ± 2.5e-05 s⁻¹,4.72e-05 ± 1.7e-05 s⁻¹,0.00015 ± 2.3e-05 s⁻¹,0.000107 ± 1.4e-05 s⁻¹,,,
A6G A14C,0.000105 ± 2.8e-06 s⁻¹,,5.24e-05 ± 8.1e-06 s⁻¹,8.29e-05 ± 7.7e-06 s⁻¹,2620 ± 210 µM,,
A42G U56C,0.00693 ± 0.0014 s⁻¹,0.00106 ± 0.00018 s⁻¹,0.00317 ± 0.0005 s⁻¹,0.00522 ± 0.0008 s⁻¹,3180 ± 860 µM,7.76e-05 ± 1.5e-05 s⁻¹,0.000469 ± 8.9e-05 s⁻¹
G13C A42C,< 1e-05 s⁻¹,,,< 1e-05 s⁻¹,,< 1e-05 s⁻¹,
C61A C67U C71U,5.2e-05 ± 2.5e-05 s⁻¹,8.57e-05 ± 2.8e-05 s⁻¹,,,,,
G41A A42U,0.000123 ± 4e-06 s⁻¹,3.91e-05 ± 1.2e-05 s⁻¹,7.77e-05 ± 1.3e-05 s⁻¹,0.000108 ± 1.2e-05 s⁻¹,1440 ± 160 µM,,
A15C C16A C70U C71U,2.86e-05 ± 3.8e-06 s⁻¹,,2.89e-05 ± 1.3e-05 s⁻¹,,,,
A14C A42U,3.4e-05 ± 1.6e-05 s⁻¹,,,2.17e-05 ± 5.9e-06 s⁻¹,,,
A33U U54C,0.000118 ± 8e-06 s⁻¹,,5.23e-05 ± 2e-05 s⁻¹,9.17e-05 ± 1.1e-05 s⁻¹,2880 ± 720 µM,,< 1e-05 s⁻¹
G43U U45G,0.00603 ± 0.00084 s⁻¹,0.00124 ± 0.00027 s⁻¹,0.00422 ± 0.0011 s⁻¹,0.005 ± 0.00078 s⁻¹,1980 ± 380 µM,0.00013 ± 1.9e-05 s⁻¹,0.000412 ± 0.00012 s⁻¹
C8G U57A C70A,5.04e-05 ± 1.1e-05 s⁻¹,,,,,,
G32A A53C,0.00145 ± 0.00063 s⁻¹,0.000126 ± 1.8e-05 s⁻¹,0.0004 ± 7.3e-05 s⁻¹,0.000944 ± 0.00012 s⁻¹,,,8.36e-05 ± 1.6e-05 s⁻¹
A6U U47A,0.000155 ± 3.1e-06 s⁻¹,3.88e-05 ± 9.8e-06 s⁻¹,8.84e-05 ± 1.2e-05 s⁻¹,0.000131 ± 1.3e-05 s⁻¹,1890 ± 110 µM,,
A53C C67U,0.00119 ± 0.00012 s⁻¹,0.000355 ± 3.8e-05 s⁻¹,0.000692 ± 8.1e-05 s⁻¹,0.00108 ± 0.00011 s⁻¹,1500 ± 230 µM,4e-05 ± 6.8e-06 s⁻¹,0.000109 ± 1e-05 s⁻¹
A6G C16U,0.000459 ± 3.2e-05 s⁻¹,6.74e-05 ± 1e-05 s⁻¹,0.000208 ± 2.7e-05 s⁻¹,0.000336 ± 3.2e-05 s⁻¹,3450 ± 450 µM,,2.44e-05 ± 1.1e-05 s⁻¹
C11A U65G,3.43e-05 ± 4.3e-07 s⁻¹,< 1e-05 s⁻¹,,3.18e-05 ± 1.3e-05 s⁻¹,777 ± 84 µM,< 1e-05 s⁻¹,
G43A C67A,0.00175 ± 0.00022 s⁻¹,0.000611 ± 0.00013 s⁻¹,0.00156 ± 0.00025 s⁻¹,0.00147 ± 0.00026 s⁻¹,976 ± 200 µM,7.15e-05 ± 1.3e-05 s⁻¹,0.000242 ± 6.6e-05 s⁻¹

Variant,kcat (glucosamine-6-phosphate [1]),self-cleavage kobs at 640 uM GlcN6P (glucosamine-6-phosphate [2]),self-cleavage kobs at 2500 uM GlcN6P (glucosamine-6-phosphate [3]),self-cleavage kobs at 10000 uM GlcN6P (glucosamine-6-phosphate [4]),KM (glucosamine-6-phosphate [5]),self-cleavage kobs at 40 uM GlcN6P (glucosamine-6-phosphate [6]),self-cleavage kobs at 160 uM GlcN6P (glucosamine-6-phosphate [7])
U55A C58G,0.00041 ± 0.00019 s⁻¹,2.55e-05 ± 1.3e-05 s⁻¹,4.69e-05 ± 1.5e-05 s⁻¹,0.000153 ± 2.5e-05 s⁻¹,,,
A14C G29A,0.000725 ± 5.3e-05 s⁻¹,0.000166 ± 2.4e-05 s⁻¹,0.000389 ± 9.3e-05 s⁻¹,0.00058 ± 9.2e-05 s⁻¹,2290 ± 270 µM,,4.05e-05 ± 1.5e-05 s⁻¹
A6G U55A C68G,2.16e-05 ± 2.8e-06 s⁻¹,,,,,,
A15C A64C,1.33e-05 ± 4.6e-06 s⁻¹,,,,,,
U31C G32C,0.000493 ± 0.00011 s⁻¹,,0.00017 ± 2.6e-05 s⁻¹,0.000344 ± 3.5e-05 s⁻¹,4480 ± 2100 µM,,
A14G A15C,0.0193 ± 0.0062 s⁻¹,0.0155 ± 0.0029 s⁻¹,0.012 ± 0.0039 s⁻¹,0.0199 ± 0.0053 s⁻¹,584 ± 270 µM,0.00141 ± 0.00023 s⁻¹,0.00312 ± 0.00073 s⁻¹
U47G U57A,0.000141 ± 1.3e-05 s⁻¹,4.42e-05 ± 1.5e-05 s⁻¹,7.57e-05 ± 2.1e-05 s⁻¹,0.000125 ± 2.4e-05 s⁻¹,1670 ± 420 µM,,
G29U C50A G60U,1e-05 ± 4.9e-06 s⁻¹,,< 1e-05 s⁻¹,,,,
U31G U54C,0.014 ± 0.0061 s⁻¹,0.00289 ± 0.00053 s⁻¹,0.00559 ± 0.00098 s⁻¹,0.0136 ± 0.0038 s⁻¹,,0.000233 ± 4e-05 s⁻¹,0.000516 ± 0.00013 s⁻¹
U54G G60U,< 1e-05 s⁻¹,,,,,,
G32U U65A,0.000104 ± 1.3e-05 s⁻¹,,,6.61e-05 ± 1.3e-05 s⁻¹,5750 ± 1600 µM,,< 1e-05 s⁻¹
G40A U45C C70U,0.000583 ± 6.9e-05 s⁻¹,0.000105 ± 2.7e-05 s⁻¹,0.000288 ± 8e-05 s⁻¹,0.000432 ± 0.00015 s⁻¹,2900 ± 550 µM,,
G60A U69G,1.18e-05 ± 5e-06 s⁻¹,,,,,,
A6G U54C,0.000547 ± 9.2e-05 s⁻¹,0.0001 ± 1.3e-05 s⁻¹,0.000351 ± 7.7e-05 s⁻¹,0.000427 ± 5.3e-05 s⁻¹,2590 ± 710 µM,,4.65e-05 ± 1.2e-05 s⁻¹
A12G A42G,0.00162 ± 0.0003 s⁻¹,0.000189 ± 1.9e-05 s⁻¹,0.00064 ± 7.7e-05 s⁻¹,0.00103 ± 0.00012 s⁻¹,4880 ± 1300 µM,,3.49e-05 ± 1.3e-05 s⁻¹
U30A U55A C71U,0.00347 ± 0.0015 s⁻¹,0.00113 ± 0.00035 s⁻¹,0.00197 ± 0.00068 s⁻¹,0.00566 ± 0.0018 s⁻¹,,0.000138 ± 3.7e-05 s⁻¹,
G66C U69C,0.000157 ± 7.2e-05 s⁻¹,7.5e-05 ± 2.8e-05 s⁻¹,6.79e-05 ± 1.5e-05 s⁻¹,0.000137 ± 2.8e-05 s⁻¹,,,
